Results taken from the DeepSol protein solubility set.

Assay: soluble on expression in E. coli; label from the status in PepcDB or PDB records

Soluble on expression in E. coli, not soluble:
MGSDKIHHHHHHMKITKVECIPVSMPLKKPLRLPNVTITKLDTLLLRLHTETGLVGIAESGDTSSWYRGESQASMVSMICDIFAPRILLGEDPCNIEKIVGAMDTLARDNNQAKGLVDCALHDLKGKVLNVPVYQLLGGRTRESAPLGWVLSAGEPDKVAEAALSAREAGFVAFKLKVGRGTFDNDVATAAAVRKALGDSARICLDANGSWNYEQALRTIRRLDAYRLDFVEQPLPHWDIEGMARLRQRIDTPVYADEAAQELHHLKEIAERRAADGVILKVQKVGGLLKAQRFLAVAQMFDLPVMCSTLIGSGVEACPTAHLWVANQWACQFISESTGPLAVHGVWNSEDIPQGADLALQGARFHRGHVSPGDGPGLGVELNEALLGQIRTEGRPARVVNL
MGSDKIHHHHHHMKKALVIGGGFAGCSAAHLLSLQGGWDITVVESGPWLGGGCKTLWYGGHPYTFGPRHFLTQNVPVFDYLNKYCPLRRCNDHVFLTYVEKDAQFYNYPIHIDDVARMPEKDQINKELTEAKQLNGAGAAKDFEEYWLASIGRTLYDKFVNTYSKKMWMLDDNKVMDDFSWSPKGVALKEGPRQAWDTAISAYPIAPNGYDDYFEIATRAEGVKVLWTTIEQYDLPNKTVVIDGEKRTYDAIINTASPDLVMDNAFGELPYIGRDFIKFVLPIAHAFPKDVYFLYYASDEPFTRLVEYKQFTRINYDAESTIIGMEIPSKNGRYYPLPLKTEYERAQKYFDAMGENVFSIGRCGSYQYRVDVDDCIAQAMDSVEKLK
MGSDKIHHHHHHMKKGILIETDNVTRLRAAVKQAEDTERGRPGMVAVWGEAGAGKTIAAHSLYAQRGGVFLRAMEGMSQHAFLQELCWEVKGTRPHGSHRCRADILRALEEEPATVYVDEADRLDLRRLEDLRDIHDITGCPVVLIGEQHLPGKLAERTRIDDRIPEEYRVPFSGITPRDVSLFALEAAEIVLTPGAAGLIHKQAKGNFRRIHNLMLSVESAARAHDTTEVDEALVRAAMPAARSSASRAPRRGQHA
MGSDKIHHHHHHMKKIVERAPTVEEAIEKVVKKYGLGEGEYTVNVLEKGFHGIFGLFSKEAVVEVQITKAYFERRLKEFLTEILQVVDPEVKITVKSSGRSFFVDVESENAGRLIGKHGKTMGALQHIAMIFLNRLSDTKLNVILDMGDYREKRKKSLEKIVEEAVKKAISEKTKVVLDPMFSFERKIVHKLVRKHRGVISYSVGVEPYRRVVIEYSATRREGRRKHDIKESI
MGSDKIHHHHHHMKKLRIAQVSPLIESVPPKKYGGTERVVYYLTEGLVERGHEVTLFASGDSATSARLIAPVKESLRLGRKIHSTTIMHMLMLSKVYEEMAGEFDIIHSHLEYLTLPYASCSRTPTVLTMHGRLDLPDYADILKRYSSMAWVSISDSQRAPVPDINWVGTIYHGYPENLFEFNPDPEDYFLYLGRFSEEKRPDEAIRLARACKIHLKLAAKIDTADKAYFKAKVEPLLDSPYIEYVGEVGDSRKGELLRNAKALLNTIDWPEPFGLVMIEALACGTPVIVRRCGSSPEVITHGVTGFICDSQLDFIRAIHNIGTISRIACRREFEQRFTLRHMVDNYETLYRKVIAASSATDSLSSLP
MGSDKIHHHHHHMKKMKIGTQNQAFFPENILEKFRYIKEMGFDGFEIDGKLLVNNIEEVKAAIKETGLPVTTACGGYDGWIGDFIEERRLNGLKQIERILEALAEVGGKGIVVPAAWGMFTFRLPPMTSPRSLDGDRKMVSDSLRVLEQVAARTGTVVYLEPLNRYQDHMINTLADARRYIVENDLKHVQIIGDFYHMNIEEDNLAQALHDNRDLLGHVHIADNHRYQPGSGTLDFHALFEQLRADNYQGYVVYEGRIRAEDPAQAYRDSLAWLRTC
MGSDKIHHHHHHMKKNGTTNSNGGNLGFEADLFKAADKLRGNMEPSDYKHVALGLIFLKYISDAFEARHQALLAEDPRAAEDRDEYLADNVFWVPKEARWSHLRANARRPEIGLLIDEAMRAIEKENESLKGVLPKDYARPALNKVMLGELIDLISGIALGEEGDRSKDILGRVYEYFLGQFAGAEGKRGGEFYTPRSVVRVLVEMLEPYHGRVYDPCCGSGGMFVQSEKFVQEHGGRIGDIAIYGQESNYTTWRLCKMNLAVRGIDADIRWNNEGSFHKDELRDLKADFILANPPFNISDWGGERLREDVRWSFGVPPVGNANYAWLQHIHHHLAPNGTAGVVLANGSMSSNQSGEGEIRKAMVEADVVDCMVALPGQLFYSTQIPACLWFLARNKNPGKGLRDRRGQVLFIDARKLGVLVDRTRRELTDAEIQKIADTYHAWRGEPDAGEYQDVPGFCKSATLEEIRKHGFVLTPGRYVGAAQQEDDGEPFEEKMARLAAQWREQRAAAAKLDAAIEANLKELGYGG
MGSDKIHHHHHHMKLANQFNIAITPSGGRTGLSAGAVATNGEIVISMDKMNQILEFFPADRMVRVQAGVVTEQLQNYAEEQGMYYPVDFASAGSSQIGGNIGTNAGGIKVIKYGMTRNRVLGLTVVTGKGDILRLNKGMIKNATGYALQHLFIGGEGTLGLVTEAEIKLERQPQNLQVLVLGVPDFDAVMPVLHAFQKDIDLTAFEFFGELAMQKVLDRGHVQRPFETQCPFYVLLEFEAPYEPIIDKAMEIFEHCMEQGWVLDGVMSQSLDQVESLWRLREDISESIAPFIPYKNDISVLITHVPAFIREIDAIVQENYPDFEICWFGHIGDGNLHLNILKPENLTKDEFFAKCQVVNKYVFDTVKKYDGSISAEHGVGMTKKPYLEYSRSAEEIEYMKALKKVFDPKGIMNPGKLFDL
MGSDKIHHHHHHMKMHVAFVHRRGFGQFAALARHLAEAGNEVTLVTETVDQRIPSVRVVRHRAEPGPQPNPHIARHLGVPDHHVRIGHRVAETFDAMGRLGQSPDIVLGHIGWGSMMFVKDVLPRVPALGYCEFFYRSEGADVGFAPDDRPDSETRKRLRLRNIAQLLSLEAMDGGISPTNWQKSLYPADARQRIAVCHEGVDTRRFRPDPAASLKLPDGRVLKAGDPVVTFVARDLEPYRGFPQALEAAAKVVRRHPDALFVFVGGDGVSYGAPPPGGGSWKDHLLASLDVPRERLIFPGVVPHSVLRQLFQISAAHLYLTYPFVLSWSVLEAMACGALVIGSDTAPVQEVIRSGRNGLLVPFFDTDALAETIVGALNRPDNFRELRGAARRTVEQRFRLDDCLARQLTLIGNLTGRNAAQAKETQFV
MGSDKIHHHHHHMKMNHLDIAKEALVAQAQAVAKLADRLDGQFQSAVDLILACEGRTVVCGMGKSGLIGKKMVATFASTGTPSFFLHPAEAFHGDLGMLKPVDVLVLISYSGETEELIKLIPSLKSFGNKFIAMTGSGNSTLAKHADIWLDISVDREVCPNNLAPTTSTLATMAMGDALAVALITANQFKPMDFARYHPGGSLGRKLLTRVADVMHSPAPIVSPASSFQDCLLMMTQSRLGLAMVMDGNELVGIVTDGDLRRALLKNNQVIHASVTEFMTLNPHTIPADCRVSVAEAYMLENKIRALAVVDDCGAIVGVVEIFDGNPVA
MGSDKIHHHHHHMKNALIQSGPDTTGRRPSRKVLIYGLNYAPELTGIGKYSAEMAESLADVGYEVRVICAPPYYPEWRIGAGHSAWRYRTEQRAAVRIQRAPVWVPSRPSGLKRLLHLASFAVSSLPTVFAQLFWRPDIVIAVAPSLMNIPAALMFGKMARARTWLHIQDYEVDAAFELGMLKGKRLRQFALGVESWLMRRFDVVSTISARMIEHGRNKGVDSPRLFALPNWVDVNVIFPLDRPSLYRTALNIPDEAIVVLYSGNMGAKQGIEVLAQAAASLAHRSDIHFVLCGDGPYKVNLVEQCGHLANCTFLSLQPFDKLNDLLNVADIHVLPQRADAADLVMPSKLTGMLASGRSIIAMARAGTELFDVVSPRGVTVPPEDVQALVAAIENLADDVDQRTRLGAAARAYAETELSRRAVIERLDGRFQMLCDRVRGRSVFT
MGSDKIHHHHHHMKNKAESLASSSASILTLGLGWFPKNPGGLERYMYELTHKLAANKDQIELCGVGLPEAERNSPIKLTNLASPDSAIWQRLWSIRTNFQKTRTNKPDAINLHFALYSFPLLDILPKGVPVTFNFHGPWASESQQEVVNKNLSLLIKHHLIEKNTYNHCDRFIVLSKAFGKILHDKYQVPWSKINIIPGGVDINWFQPNLSRQDACKQLGWPNNRRIIFTSRRLVHRTGVDKLLKALAIIKPRIPDVWLAIAGRGHIQAALQQQATELGLDDNVKFLGFLPDEQLPIAYQAAELTIMPSQSFEGFGLVIVESLACGTPVLCTPVGGMPEILSEFSPDLITTSTEASAIAEKLEQVLLGNIPIPSREACRHYAVTHYDWNQIAQQVRNVLLN
